Experimental data reported in patent US20030054336A1.

How the values were obtained:
[1] = target: Antigen 1 (Consensus B, biotinylated peptide from gp41 epitope region II of HIV1 subtype B) (HIV1 subtype B (consensus)); assay: bridge ELISA, Bi-Antigen 1 + Dig-Antigen 3
[2] = target: Antigen 2 (Consensus D, biotinylated peptide from gp41 epitope region II of HIV1 subtype D) (HIV1 subtype D (consensus)); assay: bridge ELISA, Bi-Antigen 2 + Dig-Antigen 4

Negative control
signal [1]: 0.05 U
signal [2]: 0.03 U
